The subject of data set [1] is RegA, Cu2+-stimulated disulfide-linked dimer (unphosphorylated) (Rhodobacter capsulatus). As to the kind of experiment: DNase I footprinting. The settings on record: 20 mM Tris-HCl pH 8.0, 2 mM MgCl2, 0.5 mM CaCl2, 0.1 mg/mL BSA, 50 nM DNA probe, 20 uL, 15 min at room temperature.
Data set [2] concerns the molecule itself. Briefly: non-reducing SDS-PAGE; monomeric RegA loaded with Cu2+ by buffer exchange aerobically (20 mM Tris-HCl pH 8.0, 250 mM NaCl), run at once on a non-reducing gel without DTT; time course in air from one minute.

Turning to ccoN promoter fragment (299 bp), in data set [1], the Kd (in general, a measure of binding affinity in units of concentration) was 1000 nM.

B1: RegA (response regulator RegA of Rhodobacter capsulatus), wild type, tagless (natural protein, UniProt P42508 1-184, looked up)
chain: MAEEEFAELGSDRSLLLVDDDNAFLTRLARAMEKRGFQTEIAETVSAGKAIVQNRAPAYAVIDLRLEDGNGLEVVEALRERRPEARIVVLTGYGAIATAVAAVKMGATDYLSKPADANDITNALLAKGEALPPPPENPMSADRVRWEHIQRVYELCDRNVSETARRLNMHRRTLQRILAKRSPR
notes: RegA, response regulator of the RegB/RegA two-component system, Rhodobacter capsulatus; wild-type codon at residue 95 (made from the RegA* overexpression vector of Du et al. 1998); a single cysteine, Cys156, in the tryptic peptide VYELCDR; The dimer formed with Cu2+ and O2 is joined by an intermolecular disulfide bond between Cys156 of two chains; also called apo-RegA; RegA monomer
For B1, the stoichiometry N (in general, a count of units in the complex or per binding partner) in data set [2] worked out at 2.

(Values after paper PMC9147068, “The Response Regulator RegA Is a Copper Binding Protein That Covalently Dimerizes When Exposed to Oxygen” (Microorganisms, 2022).)
